Experimental data reported in patent publication US9644205B2, “Synthetic promoter for modulating gene expression” (The Regents of the University of California, priority 2012, dated 2017).

Key:
Beta TC-6 cells = assay: CAT assay for promoter activity in Beta TC-6 cells; format: cell-based, mouse; settings: compared to human insulin promoter fragments
Procedure: FIG. 2 is a plot of the CAT assay for HIP activity in Beta TC-6 cells.
FIG. 3 is a plot of the CAT assay for HIP promoter construct expression activity BL promoter construct expression activity in Beta TC-6 cells.
(§1) In our methodological approach, activity and specificity of BLs were determined by CAT and mCherry assays in PDX-1+PC and HEK293 cell lines vs PDX-1—human pancreatic ductal epithelial (HPDE) cells. […] Cytotoxicity was determined by MTS assay. 1M PANC-1 cells were injected ip into 65 SCID mice; two weeks later, mice received BL1-vTK, RIP-vTK, CMV-vTK, or pVAX1 empty vector control (35 ug liposomal DNA/mouse/tail vein followed by two weeks of GCV (40 mg/kg, ip, bid; N=15/group). Glucose levels were measured on days 14 and 60 after treatment. Tumor volume was measured in each mouse. Statistical analysis was performed via paired T test; p<0.05=significant.

PANC-1 = assay: relative CAT expression in PANC-1 cells; format: cell-based, human; settings: PANC-1 (high PDX-1); compared to RIP and HIP 1400
Procedure: FIG. 4 is a plot of the assay of the relative CAT expression being driven by BL-1 promoter compared to RIP and HIP 1400 promoter constructs in human pancreas cancer cell line, PANC-1, which have high expression of PDX-1, and benign human pancreatic ductal epithelial cell line HPDE, which have no expression of PDX-1 and are a negative control cell line.
as §1

HPDE cells = assay: CAT expression in HPDE cells (PDX-1 negative, PDX-1 co-transfection dose curve); format: cell-based, human
Procedure: FIG. 7 is a plot of the assay of the BL-CAT driving CAT expression in response to increasing doses of PDX-1 in human pancreatic ductal epithelial cells, which have very low expression of PDX-1.
FIG. 8 is a plot of another assay of the BL-CAT driving CAT expression in response to increasing doses of PDX-1 in human pancreatic ductal epithelial cells, which have very low expression of PDX-1.
as §1

MIA PaCa2 = assay: relative CAT expression in MIA PaCa2 vs MIA PaCa2 PDX-1 cells; format: cell-based, human; settings: MIA PaCa2 (very low PDX-1) vs MIA PaCa2 stably transfected with PDX-1; compared to RIP and three HIP fragments
Description: FIG. 5 is a plot of the assay of the relative CAT expression being driven by BL-1 promoter compared to RIP and three HIP fragments in human pancreas cancer cell line, MIA PaCa2, which have very low PDX-1 expression vs MIA PaCa2 cells stably transfected with PDX-1.

[1] = test system: human embryonic kidney cell line 293 stably transfected with PDX-1 or mutated PDX-1 P47D; assay: relative CAT expression in 293 PDX-1 vs 293 P47D cells; format: cell-based; settings: 293 stably transfected with PDX-1 or PDX-1 P47D; compared to RIP and three HIP fragments
Description: FIG. 6 is a plot of the assay of the relative CAT expression being driven by BL-1 promoter compared to RIP and three HIP fragments in human embryonic kidney cell line 293, (which have no PDX-1 expression), stably transfected with PDX-1 or mutated PDX-1 P47D.

[2] = test system: PDX-1 stably expressing PC and HEK cells; assay: CAT and mCherry reporter assays in PDX-1+ PC and HEK293 cell lines; format: cell-based, human
Procedure: as §1

B1: BL-1: synthetic 550 bp promoter, SEQ ID NO: 1; three repeated C2/E2/G2/A3/CRE1 and three repeated GG2/A2/C1/E1/A1 motifs (nucleic acid)
DNA: GACAGCAGCGCAAAGAGCCCCGCCCTGCAGCCTCCAGCTCTCCTGGTCTAATGTGGAAAGTGGCCCAGGTGAGGGCTTTGCTCTCCTGGAGACATTTGCCCCCAGCTGTGAGCAGGGACAGGTCTGGCCACCGGGCCCCTGGTTAAGACTCTAATGACCCGCTGGTCCCAGGGACAGGTCTGGCCACCGGGCCCCTGGTTAAGACTCTAATGACCCGCTGGTCCCAGGGACAGGTCTGGCCACCGGGCCCCTGGTTAAGACTCTAATGACCCGCTGGTCCGGAAATGGTCCGGAAATTGCAGCCTCAGCCCCCAGCCATCTGCCGACCCCCCCACCCCAGGCCCTAATGGGCGGAAATGGTCCGGAAATTGCAGCCTCAGCCCCCAGCCATCTGCCGACCCCCCCACCCCAGGCCCTAATGGGCGGAAATGGTCCGGAAATTGCAGCCTCAGCCCCCAGCCATCTGCCGACCCCCCCACCCCAGGCCCTAATGGGCGGTAGGGGAGATGGGCTCTGAGACTATAAAGCCAGCGGGGGCCCAGCAGCCCTC
Beta TC-6 cells
  expression of CAT: equal to or better than human insulin promoter fragments
PANC-1
  relative CAT expression: to a far greater degree than HIP and RIP
HPDE cells; HPDE cells, co-transfection of PDX-1
  CAT expression in response to increasing doses of PDX-1: dose dependent manner
HPDE cells; PDX-1-negative cell lines
  CAT expression: No CAT expression was detected
MIA PaCa2
  relative CAT expression: more effective than RIP or HIP
[1]
  relative CAT expression: far more effective than RIP or HIP
[2]; among the BL promoters, CAT and mCherry assays
  activity of expressing reporter genes: highest activity
[2]; vs CMV-driven expression
  CAT and mCherry reporter expression: equal to CMV-driven expression
[2]; vs RIP-driven expression, p<0.05
  CAT and mCherry reporter expression: significantly greater than RIP-driven expression
